# Measured values taken from US20100203559A1 (published 2010).
# Biological target: T1, SNAP-25206 uncleaved substrate (PC12 cells) (rat (PC12 cells), UniProt P60881 1-206)
# T1 construct: also called uncleaved SNAP-25206 substrate; uncleaved SNAP-25
# Test: cell-based activity assay (Western blot, PC12 cells), ascites 1:100
# T1 sequence (P60881 whole entry): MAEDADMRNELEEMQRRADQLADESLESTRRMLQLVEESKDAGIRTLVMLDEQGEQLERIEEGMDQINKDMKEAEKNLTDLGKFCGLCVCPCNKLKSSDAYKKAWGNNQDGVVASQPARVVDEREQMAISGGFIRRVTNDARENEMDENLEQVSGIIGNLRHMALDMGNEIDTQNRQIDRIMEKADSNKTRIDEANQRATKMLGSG
row,Binder,binding result
1,"α-SNAP-25 monoclonal antibody 1D3B8 (antibody, V domains shown) VH: QVKLQESGAELVKPGASVKISCKASGYIFTDHALHWVRQKPEQGLEWIGYIFPGNGNIEYNEKFKGKATLTADKSSSTAYMQLNSLTSGDSAMYFCKKMDYWGQGTTVTVSS VL: DVLMTQTPLSLPVSLGDQASISCRSSQSIVHSNGNTYLEWYLQKPGQSPKLLIYKVSNRFSGVPDRFSGSGSGTDFTLKISRVEAEDLGVYYCFQGSHVPPTFGAGTKLELKR",no binding
2,"α-SNAP-25 monoclonal antibody 2E2A6 (antibody, V domains shown) VH: QVQLQQSDAELVKPGASVKISCRASGYTFTDHSIHWVKQQPGQGLEWIGYIFPGNGNIEYNDKFKGKATLTADKSSGTAYMQLNSLTSEDSAVYFCKRMGYWGQGTSVTVSS VL: DVLMTQTPLTLSVTIGQPASISCKSSQSLLYTNGKTYLTWLFQRPGQSPKRLIYLVSELDSGVPDRFSGSGSGTDFTLEITRVEAEDLGVYYCLQSAHFPFTFGSGTKLEIKR",no binding
3,"α-SNAP-25 monoclonal antibody 3C1A5 (antibody, V domains shown) VH: QVKLQESGAELVKPGASVKISCKASGYTFTDHSIHWVKQKPGQGLEWIGYLFPGNGNFEYNEKFKGKATLTADKSSSTVYMYLNSLTSEDSAVYFCKRMGYWGQGTTVTVSS VL: DVVMTQTPLTLSVTIGQPASISCKSSQSLLNTNGKTYLTWLIQRPGQSPQRLIYLVSKLDSGVPDRFSGSGSGTDFTLKISRVEAEDLGVYYCLQSSHFPFTFGSGTKLEIKR",no binding
